Measurements published in patent publication US20150329626A1.

Key:
human Ang2 (human) [1] = target: human Ang2 (human) (UniProt O15123); experiment: competition ELISA: blocking of biotinylated human Ang2 binding to plate-coated human Tie2-Fc
human Ang2 (human) [2] = target: human Ang2 (human) (UniProt O15123); experiment: Biacore SPR, 37 C, n = 3, antibody captured on Protein A
[3] = target: cyno Ang2 (cynomolgus monkey); experiment: as above
dog Ang2 (dog) = experiment: as above
rabbit Ang2 (rabbit) = rabbit Ang2 (rabbit) (UniProt G1T9B3); experiment: as above
Chain of rabbit Ang2 (rabbit) (G1T9B3 entry or part of it): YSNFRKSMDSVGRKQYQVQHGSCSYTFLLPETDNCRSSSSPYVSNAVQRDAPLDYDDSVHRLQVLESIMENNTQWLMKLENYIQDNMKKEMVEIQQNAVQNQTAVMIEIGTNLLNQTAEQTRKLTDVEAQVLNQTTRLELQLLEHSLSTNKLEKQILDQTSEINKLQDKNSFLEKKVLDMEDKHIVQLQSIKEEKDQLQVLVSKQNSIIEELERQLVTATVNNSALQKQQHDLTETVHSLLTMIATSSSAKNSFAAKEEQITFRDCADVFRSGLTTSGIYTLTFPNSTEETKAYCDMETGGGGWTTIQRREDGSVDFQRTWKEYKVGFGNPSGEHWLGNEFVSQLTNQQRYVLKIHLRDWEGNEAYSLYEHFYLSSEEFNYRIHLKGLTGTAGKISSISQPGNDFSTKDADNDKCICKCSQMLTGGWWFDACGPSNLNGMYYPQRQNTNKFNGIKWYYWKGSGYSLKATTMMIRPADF

mouse Ang2 (mouse) = mouse Ang2 (mouse) (UniProt O35608); experiment: as above
Chain of mouse Ang2 (mouse) (O35608 19-496 limits assumed): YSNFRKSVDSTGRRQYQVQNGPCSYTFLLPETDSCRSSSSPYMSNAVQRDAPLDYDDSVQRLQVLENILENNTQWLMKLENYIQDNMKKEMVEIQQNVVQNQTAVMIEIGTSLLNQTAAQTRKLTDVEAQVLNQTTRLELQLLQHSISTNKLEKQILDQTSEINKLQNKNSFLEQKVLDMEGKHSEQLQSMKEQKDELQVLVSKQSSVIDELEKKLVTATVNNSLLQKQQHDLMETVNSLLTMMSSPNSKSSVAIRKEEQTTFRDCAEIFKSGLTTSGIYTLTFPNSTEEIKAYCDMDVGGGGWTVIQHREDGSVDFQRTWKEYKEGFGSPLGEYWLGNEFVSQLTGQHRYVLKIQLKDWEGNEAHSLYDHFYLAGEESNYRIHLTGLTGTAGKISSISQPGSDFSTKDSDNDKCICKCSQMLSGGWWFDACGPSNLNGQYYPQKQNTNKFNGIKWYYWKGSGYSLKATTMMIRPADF

human Ang2 (human) [4] = target: human Ang2 (human) (UniProt O15123); experiment: cell-based or functional assay

Chain of dog Ang2 (dog) (A0A8J8 19-495 limits assumed): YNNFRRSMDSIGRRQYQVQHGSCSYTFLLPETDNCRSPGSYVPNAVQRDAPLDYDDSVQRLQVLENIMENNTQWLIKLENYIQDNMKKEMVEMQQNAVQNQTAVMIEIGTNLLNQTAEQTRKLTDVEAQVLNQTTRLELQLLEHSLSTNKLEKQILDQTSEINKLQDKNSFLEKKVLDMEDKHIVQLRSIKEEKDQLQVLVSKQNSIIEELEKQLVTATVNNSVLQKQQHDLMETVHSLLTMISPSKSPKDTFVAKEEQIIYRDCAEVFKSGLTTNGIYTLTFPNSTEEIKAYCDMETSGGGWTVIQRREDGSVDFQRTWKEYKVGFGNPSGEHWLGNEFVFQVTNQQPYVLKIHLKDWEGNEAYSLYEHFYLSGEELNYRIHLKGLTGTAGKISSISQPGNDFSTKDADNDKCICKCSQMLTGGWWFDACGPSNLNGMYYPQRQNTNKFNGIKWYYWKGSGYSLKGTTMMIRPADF
Chain of human Ang2 (human) (O15123 19-496 limits assumed): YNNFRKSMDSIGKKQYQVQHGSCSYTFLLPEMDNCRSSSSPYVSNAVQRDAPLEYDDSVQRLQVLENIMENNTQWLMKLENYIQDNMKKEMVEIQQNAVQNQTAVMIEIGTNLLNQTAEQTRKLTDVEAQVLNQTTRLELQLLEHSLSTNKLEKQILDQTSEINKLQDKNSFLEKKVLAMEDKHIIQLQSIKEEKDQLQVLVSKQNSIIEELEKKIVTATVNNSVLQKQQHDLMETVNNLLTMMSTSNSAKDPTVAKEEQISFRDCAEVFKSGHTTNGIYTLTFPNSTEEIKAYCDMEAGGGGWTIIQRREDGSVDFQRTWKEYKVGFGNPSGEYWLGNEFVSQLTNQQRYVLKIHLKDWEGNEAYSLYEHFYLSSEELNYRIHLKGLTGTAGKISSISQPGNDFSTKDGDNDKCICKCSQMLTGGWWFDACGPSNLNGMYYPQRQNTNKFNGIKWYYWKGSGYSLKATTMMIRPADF

IC50 (human Ang2 (human) [1]): 0.027 nM
Kd (human Ang2 (human) [2]): 0.08 nM
koff (human Ang2 (human) [2]): 7e-05 s⁻¹
kon (human Ang2 (human) [2]): 1e+06 M⁻¹ s⁻¹
Kd [3]: 0.107 nM
koff [3]: 0.00029 s⁻¹
kon [3]: 2.7e+06 M⁻¹ s⁻¹
Kd (dog Ang2 (dog)): 0.14 nM
koff (dog Ang2 (dog)): 0.00011 s⁻¹
kon (dog Ang2 (dog)): 790000 M⁻¹ s⁻¹
Kd (rabbit Ang2 (rabbit)): 0.21 nM
koff (rabbit Ang2 (rabbit)): 0.00015 s⁻¹
kon (rabbit Ang2 (rabbit)): 730000 M⁻¹ s⁻¹
Kd (mouse Ang2 (mouse)): 0.109 nM
koff (mouse Ang2 (mouse)): 0.00011 s⁻¹
kon (mouse Ang2 (mouse)): 1e+06 M⁻¹ s⁻¹
inhibition of human Ang2 induced phospho-Tie2 in CHO-Tie2 cells (IC50) (human Ang2 (human) [4]): 0.773 nM
B1: Ang2 antibody with the same HCDRs and LCDRs as the scFv polypeptide portion of Compound F (antibody, V domains shown)
VH: QVQLVQSGAEVKKPGSSVKVSCKASGYSFTDYNMVWVRQAPGQCLEWMGYIDPYNGGTGYNQKFEGRVTITADESTSTAYMELSSLRSEDTAVYYCARTRDRYDVWYFDVWGQGTLVTVSS
VL: DIVMTQSPDSLAVSLGERATINCKASQDVYIAVAWYQQKPGQPPKLLIYWASTRDTGVPDRFSGSGSGTDFTLTISSLQAEDVAVYYCHQYSSYPPTFGCGTKVEIK
modifications: CDRs only; frameworks, constant regions missing
